Results as given in patent US20260274993A1 (HUMMINGBIRD BIOSCIENCE PTE, published 2026).

How the values were obtained:
3A6 mutant FR1 = target: T1, 3A6 mutant FR1; assay: ELISA, human IgG1 antigen captured on anti-human IgG Fc;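 further: humanized antibodies bound to human IgG1 antigen captured at 1 µg/ml on anti-human IgG Fc plates, detected with anti-mouse IgG Fc/HRP, VSTB112 serving as negative control protein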
T1 construct: also called 3A6 FR1; 3A6-FR1 (VH4-34 FR1 mutant)
Procedure: (§1) The binding affinity of each humanized antibody for 3A6 antibody (containing VH4-34 antigen), 3A6-FR1 (VH4-34 FR1 mutant) and VSTB112 (negative control protein) was evaluated.
(§2) Plates were coated with 1 ug/ml of anti-human IgG Fc overnight at 4° C. Plates were washed thrice with PBS/0.05% Tween (PBST) before blocking with 5% BSA for 1 h at room temp (RT). Plates were then washed again before addition of 1 μg/ml of 3A6 (VH4-34 antigen), 3A6-FR1 (VH4-34 FR1 mutant) or VSTB112 (negative control protein) human IgG1 proteins. Plates were washed thrice. […] After washing the plates, anti-mouse IgG Fc/HRP diluted 1:5000 in 1% BSA was added and incubated for 1 h at RT. Plates were washed before detection using 1-step ELISA substrate.

3A6 [1] = target: T2, 3A6; assay: as above
T2 construct: also called 3A6 antibody (containing VH4-34 antigen); 3A6 (VH4-34 antigen)
Procedure: as §1, §2

[2] = target: T3, antibodies containing VH4-34 endogenously expressed by cell line OCI-Ly3; assay: flow cytometry, EC50 of % parent, OCI-Ly3 cells endogenously expressing VH4-34
T3 construct: Whole, on cells; also called VH4-34-expressing cell line OCI-Ly3
Procedure: (§3) Binding was assessed by FACS. Briefly, cells were assayed in PBS with 0.5% BSA and 2 mM EDTA. Live dead staining was performed with a live dead cell dye for 15 minutes at 4° C. […] Following this, cells were incubated with a secondary PE goat anti-mouse IgG (1:300) for 30 mins at 4° C. and PE readout was measured.

[3] = target: T3, antibodies containing VH4-34 …; assay: flow cytometry, EC50 of MFI, OCI-Ly3 cells endogenously expressing VH4-34
Procedure: as §3

tabalumab = assay: flow cytometry (geomean MFI), CHO cells overexpressing the surface antibody
zanolimumab = target: T4, zanolimumab; assay: as above
T4 construct: VH4-34-containing antibody used as the antigen, overexpressed on the surface of CHO cells; also called Zano.hIgG1

3A6 [4] = target: T2, 3A6; assay: as above

T4 sequence (VH, as listed by the source, chain 1 of 2): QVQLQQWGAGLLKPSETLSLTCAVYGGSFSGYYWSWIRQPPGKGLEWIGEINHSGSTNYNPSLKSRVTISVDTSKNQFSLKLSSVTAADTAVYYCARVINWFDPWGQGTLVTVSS
T4 sequence (VL, as listed by the source, chain 2 of 2): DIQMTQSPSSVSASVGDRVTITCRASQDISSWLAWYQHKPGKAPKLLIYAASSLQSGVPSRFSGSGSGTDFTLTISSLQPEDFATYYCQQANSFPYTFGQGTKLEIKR
T1 sequence (VH, as listed by the source, chain 1 of 2): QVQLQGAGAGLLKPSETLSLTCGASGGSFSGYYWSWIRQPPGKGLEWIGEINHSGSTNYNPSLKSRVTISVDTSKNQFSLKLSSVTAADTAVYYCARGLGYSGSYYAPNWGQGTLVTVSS
T1 sequence (VL, as listed by the source, chain 2 of 2): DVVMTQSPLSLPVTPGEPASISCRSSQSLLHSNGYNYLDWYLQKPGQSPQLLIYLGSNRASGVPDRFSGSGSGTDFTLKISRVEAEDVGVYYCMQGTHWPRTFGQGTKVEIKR
T2 sequence (VH, as listed by the source, chain 1 of 2): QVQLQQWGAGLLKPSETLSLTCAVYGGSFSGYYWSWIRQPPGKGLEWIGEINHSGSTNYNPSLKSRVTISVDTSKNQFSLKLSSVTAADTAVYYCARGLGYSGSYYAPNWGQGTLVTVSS
tabalumab, sequence (VH, as listed by the source, chain 1 of 2): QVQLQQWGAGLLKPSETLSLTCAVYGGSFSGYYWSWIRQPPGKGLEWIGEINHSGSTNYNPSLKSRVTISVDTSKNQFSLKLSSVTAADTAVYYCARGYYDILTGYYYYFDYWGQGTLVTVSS
tabalumab, sequence (VL, as listed by the source, chain 2 of 2): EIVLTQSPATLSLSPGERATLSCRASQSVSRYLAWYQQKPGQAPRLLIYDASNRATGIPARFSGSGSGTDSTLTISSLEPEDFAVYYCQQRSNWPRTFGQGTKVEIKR

Binder	binding result (3A6 mutant FR1)	EC50 (3A6 [1]) [nM]	EC50 [2] [nM]	EC50 [3] [nM]	EC50 (tabalumab) [nM]	EC50 (zanolimumab) [nM]	EC50 (3A6 [4]) [nM]
D011-7016-LD2 H4/L4 IgG2a (antibody, V domains shown) VH: QVQLQESGPGLVKPSETLSLTCTVSWDAITSGYWNWVRQPPGNKLEYMGYISYSGSAHYNPSLKSRITISRDTSKNQYSLKLSSVTAADTAVYYCASYSFAYWGQGTLVTVSS VL: EIVLTQSPDFQSVTPKEKVTITCRASQSIDNQLHWYQQKPDQSPKLLIKYASQSISGVPSRFSGSGSGTDFTLTISSLEAEDAATYFCQQSYGWPYTFGGGTKLEIKR	no binding (tested: 1 µg/ml (highest concentration))	0.0365					
D011-7016-LD2 H5/L3 IgG2a (antibody, V domains shown) VH: QVQLQESGPGLVKPSQTLSLTCTVSWDAITSGYWNWVRQHPGNKLEYMGYISYSGSAHYNPSLKSRITISRDTSKNQYSLKLSSVTAADTAVYYCASYSFAYWGQGTLVTVSS VL: DIQMTQSPSSLSASVGDRVTITCRASQSIDNQLHWYQQKPGKSPNLLINYASQSISGVPSRFSGSGSGTDFTLTISSLQPEDFATYFCQQSYGWPYTFGGGTKVEIKR	no binding (tested: 1 µg/ml (highest concentration))	0.282					
D011-7016-LD2 H5/L1 IgG2a (antibody, V domains shown) VH: QVQLQESGPGLVKPSQTLSLTCTVSWDAITSGYWNWVRQHPGNKLEYMGYISYSGSAHYNPSLKSRITISRDTSKNQYSLKLSSVTAADTAVYYCASYSFAYWGQGTLVTVSS VL: DIVMTQSPPSLSVTPGEPASLSCRASQSIDNQLHWYLQKPGQSPQLLINYASQSISGVTDRFSGSGSGTDFTLKISRVEAEDVGVYFCQQSYGWPYTFGGGTKVEIKR	no binding (tested: 1 µg/ml (highest concentration))	0.0295	0.0047	0.308	0.313	0.645	0.59
D011-7016-LD2 H4/L3 IgG2a (antibody, V domains shown) VH: QVQLQESGPGLVKPSETLSLTCTVSWDAITSGYWNWVRQPPGNKLEYMGYISYSGSAHYNPSLKSRITISRDTSKNQYSLKLSSVTAADTAVYYCASYSFAYWGQGTLVTVSS VL: DIQMTQSPSSLSASVGDRVTITCRASQSIDNQLHWYQQKPGKSPNLLINYASQSISGVPSRFSGSGSGTDFTLTISSLQPEDFATYFCQQSYGWPYTFGGGTKVEIKR	no binding (tested: 1 µg/ml (highest concentration))	0.011					
D011-7016-LD2 H3/L3 IgG2a (antibody, V domains shown) VH: QVQLQESGPGLVKPSETLSLTCSVSWDAITSGYWNWVRQPPGNKLEYMGYISYSGSAHYNPSLKSRITISRDTSKNQYSLTLTSMTAADTALYYCASYSFAYWGQGTLVTVSS VL: DIQMTQSPSSLSASVGDRVTITCRASQSIDNQLHWYQQKPGKSPNLLINYASQSISGVPSRFSGSGSGTDFTLTISSLQPEDFATYFCQQSYGWPYTFGGGTKVEIKR	no binding (tested: 1 µg/ml (highest concentration))	0.169					
D011-7016-LD2 H0/L0 IgG2a (antibody, V domains shown) VH: QVQLQESGPGLVKPSETLSLTCTVSGDAITSGYWNWIRQPPGKGLEYMGYISYSGSAHYNPSLKSRITISRDTSKNQYSLKLSSVTAADTAVYYCASYSFAYWGQGTLVTVSS VL: EIVMTQSPDFQSVTPKEKVTITCRASQSIDNQLHWYQQKPDQSPKLLINYASQSISGVPSRFSGSGSGTDFTLTISSLEAEDAATYYCQQSYGWPYTFGQGTKLEIKR	no binding (tested: 1 µg/ml (highest concentration))	0.0369	0.00384	0.271	0.376	0.453	0.605
D011-7016-LD2 H3/L1 IgG2a (antibody, V domains shown) VH: QVQLQESGPGLVKPSETLSLTCSVSWDAITSGYWNWVRQPPGNKLEYMGYISYSGSAHYNPSLKSRITISRDTSKNQYSLTLTSMTAADTALYYCASYSFAYWGQGTLVTVSS VL: DIVMTQSPPSLSVTPGEPASLSCRASQSIDNQLHWYLQKPGQSPQLLINYASQSISGVTDRFSGSGSGTDFTLKISRVEAEDVGVYFCQQSYGWPYTFGGGTKVEIKR	no binding (tested: 1 µg/ml (highest concentration))	0.0398	0.00375	0.292			
D011-7016-LD2 H1/L4 IgG2a (antibody, V domains shown) VH: QVQLQESGPGLVKPSQTLSLTCTVSWDAITSGYWNWVRQHPGKGLEYMGYISYSGSAHYNPSLKSRITISRDTSKNQYSLKLSSVTAADTATYYCASYSFAYWGQGTLVTVSS VL: EIVLTQSPDFQSVTPKEKVTITCRASQSIDNQLHWYQQKPDQSPKLLIKYASQSISGVPSRFSGSGSGTDFTLTISSLEAEDAATYFCQQSYGWPYTFGGGTKLEIKR	no binding (tested: 1 µg/ml (highest concentration))	0.0234	0.00765	0.46			
D011-7016-LD2 H4/L1 IgG2a (antibody, V domains shown) VH: QVQLQESGPGLVKPSETLSLTCTVSWDAITSGYWNWVRQPPGNKLEYMGYISYSGSAHYNPSLKSRITISRDTSKNQYSLKLSSVTAADTAVYYCASYSFAYWGQGTLVTVSS VL: DIVMTQSPPSLSVTPGEPASLSCRASQSIDNQLHWYLQKPGQSPQLLINYASQSISGVTDRFSGSGSGTDFTLKISRVEAEDVGVYFCQQSYGWPYTFGGGTKVEIKR	no binding (tested: 1 µg/ml (highest concentration))	0.0521					
D011-7016-LD2 H1/L2 IgG2a (antibody, V domains shown) VH: QVQLQESGPGLVKPSQTLSLTCTVSWDAITSGYWNWVRQHPGKGLEYMGYISYSGSAHYNPSLKSRITISRDTSKNQYSLKLSSVTAADTATYYCASYSFAYWGQGTLVTVSS VL: DIVMTQSPPSLSVTPGESASISCRASQSIDNQLHWYLQKPGQSPQLLINYASQSISGVTDRFSGSGSGTDFTLKISRVEAEDVGMYFCQQSYGWPYTFGGGTKVEIKR	no binding (tested: 1 µg/ml (highest concentration))	0.0427					
D011-7016-LD2 H5/L4 IgG2a (antibody, V domains shown) VH: QVQLQESGPGLVKPSQTLSLTCTVSWDAITSGYWNWVRQHPGNKLEYMGYISYSGSAHYNPSLKSRITISRDTSKNQYSLKLSSVTAADTAVYYCASYSFAYWGQGTLVTVSS VL: EIVLTQSPDFQSVTPKEKVTITCRASQSIDNQLHWYQQKPDQSPKLLIKYASQSISGVPSRFSGSGSGTDFTLTISSLEAEDAATYFCQQSYGWPYTFGGGTKLEIKR	no binding (tested: 1 µg/ml (highest concentration))	0.0495	0.00251	0.282			
D011-7016-LD2 H5/L2 IgG2a (antibody, V domains shown) VH: QVQLQESGPGLVKPSQTLSLTCTVSWDAITSGYWNWVRQHPGNKLEYMGYISYSGSAHYNPSLKSRITISRDTSKNQYSLKLSSVTAADTAVYYCASYSFAYWGQGTLVTVSS VL: DIVMTQSPPSLSVTPGESASISCRASQSIDNQLHWYLQKPGQSPQLLINYASQSISGVTDRFSGSGSGTDFTLKISRVEAEDVGMYFCQQSYGWPYTFGGGTKVEIKR	no binding (tested: 1 µg/ml (highest concentration))	0.0432	0.00438	0.281	0.284	0.65	0.59
D011-7016-LD2 H3/L4 IgG2a (antibody, V domains shown) VH: QVQLQESGPGLVKPSETLSLTCSVSWDAITSGYWNWVRQPPGNKLEYMGYISYSGSAHYNPSLKSRITISRDTSKNQYSLTLTSMTAADTALYYCASYSFAYWGQGTLVTVSS VL: EIVLTQSPDFQSVTPKEKVTITCRASQSIDNQLHWYQQKPDQSPKLLIKYASQSISGVPSRFSGSGSGTDFTLTISSLEAEDAATYFCQQSYGWPYTFGGGTKLEIKR	no binding (tested: 1 µg/ml (highest concentration))	0.0627					
D011-7016-LD2 H1/L1 IgG2a (antibody, V domains shown) VH: QVQLQESGPGLVKPSQTLSLTCTVSWDAITSGYWNWVRQHPGKGLEYMGYISYSGSAHYNPSLKSRITISRDTSKNQYSLKLSSVTAADTATYYCASYSFAYWGQGTLVTVSS VL: DIVMTQSPPSLSVTPGEPASLSCRASQSIDNQLHWYLQKPGQSPQLLINYASQSISGVTDRFSGSGSGTDFTLKISRVEAEDVGVYFCQQSYGWPYTFGGGTKVEIKR	no binding (tested: 1 µg/ml (highest concentration))	0.0446					
D011-7016-LD2 H4/L2 IgG2a (antibody, V domains shown) VH: QVQLQESGPGLVKPSETLSLTCTVSWDAITSGYWNWVRQPPGNKLEYMGYISYSGSAHYNPSLKSRITISRDTSKNQYSLKLSSVTAADTAVYYCASYSFAYWGQGTLVTVSS VL: DIVMTQSPPSLSVTPGESASISCRASQSIDNQLHWYLQKPGQSPQLLINYASQSISGVTDRFSGSGSGTDFTLKISRVEAEDVGMYFCQQSYGWPYTFGGGTKVEIKR	no binding (tested: 1 µg/ml (highest concentration))	0.0532	0.00428	0.33			
D011-7016-LD2 H1/L3 IgG2a (antibody, V domains shown) VH: QVQLQESGPGLVKPSQTLSLTCTVSWDAITSGYWNWVRQHPGKGLEYMGYISYSGSAHYNPSLKSRITISRDTSKNQYSLKLSSVTAADTATYYCASYSFAYWGQGTLVTVSS VL: DIQMTQSPSSLSASVGDRVTITCRASQSIDNQLHWYQQKPGKSPNLLINYASQSISGVPSRFSGSGSGTDFTLTISSLQPEDFATYFCQQSYGWPYTFGGGTKVEIKR	no binding (tested: 1 µg/ml (highest concentration))	0.0469					
D011-7016-LD2 H3/L2 IgG2a (antibody, V domains shown) VH: QVQLQESGPGLVKPSETLSLTCSVSWDAITSGYWNWVRQPPGNKLEYMGYISYSGSAHYNPSLKSRITISRDTSKNQYSLTLTSMTAADTALYYCASYSFAYWGQGTLVTVSS VL: DIVMTQSPPSLSVTPGESASISCRASQSIDNQLHWYLQKPGQSPQLLINYASQSISGVTDRFSGSGSGTDFTLKISRVEAEDVGMYFCQQSYGWPYTFGGGTKVEIKR	no binding (tested: 1 µg/ml (highest concentration))	0.053					
